# Data: paper PMC6980713
# T1: HMCES SRAP domain (SRAPd) (Homo sapiens, UniProt Q96FZ2 1-270)
# T1 sequence: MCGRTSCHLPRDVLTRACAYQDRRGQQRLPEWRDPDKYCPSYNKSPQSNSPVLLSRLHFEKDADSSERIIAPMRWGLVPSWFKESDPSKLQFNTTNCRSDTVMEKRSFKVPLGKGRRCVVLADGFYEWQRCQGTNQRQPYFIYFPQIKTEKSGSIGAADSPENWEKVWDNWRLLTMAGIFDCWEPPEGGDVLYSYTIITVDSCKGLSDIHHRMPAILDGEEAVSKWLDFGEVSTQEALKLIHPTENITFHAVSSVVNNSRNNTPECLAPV
# Molecular target: T1, HMCES SRAP domain (SRAPd)
# Assay: X-ray crystallography
binder,measurement,value
P5nt palindromic DNA (dsDNA) DNA 1: CAACGTTGTTTTT DNA 2: CAACGTTGTTTTT,binding result,binds
